Data reported in patent US6870033.
Where a chain is given by its changes, count along the chain named. Read-outs that look alike come from different tables or passages of the source.

B1: humanized 6G425 F(ab)-1 (Fab, V domains shown)
VH: EVQLVESGGGLVQPGGSLRLSCAASGYSFSSHYMHWVRQAPGKGLEWVGYIDPSNGETTYNQKFKGRFTISRDNSKNTLYLQMNSLRAEDTAVYYCARGDYRYNGDWFFDVWGQGTLVTVSS
VL: DIQMTQSPSSLSASVGDRVTITCRSSQSLVHGIGNTYLHWYQQKPGKAPKLLIYKVSNRFSGVPSRFSGSGSGTDFTLTISSLQPEDFATYYCSQSTHVPLTFGQGTKVEIKR
notes: Fab with human kappa subgroup I light chain and human IgG1 subgroup III heavy chain (vector pEMX1); also called version 1; VI
B2: humanized 6G425 F(ab)-2 (Fab, V domains shown)
VH: B1 VH with F68A
VL: B1 VL
notes: Template F(ab)-1; Fab constant parts as F(ab)-1; also called version 2
B3: humanized 6G425 F(ab)-3 (Fab, V domains shown)
VH: B1 VH with R72V
VL: B1 VL
notes: Template F(ab)-1; Fab constant parts as F(ab)-1; also called version 3
B4: humanized 6G425 F(ab)-8 (6G4.2.5V19) (Fab, V domains shown)
VH: B1 VH with R38K, I70L, L79A
VL: B1 VL
B5: humanized 6G425 F(ab)-7 (Fab, V domains shown)
VH: B1 VH with I70L, L79A, L81V
VL: B1 VL
notes: Template F(ab)-6; Fab constant parts as F(ab)-1; also called version 16

How the values were obtained:
[1] = target: T1, recombinant human IL-8, (ser-IL-8)72 (human, UniProt P10145 28-99); experiment: inhibition of 125I-IL-8 binding to human neutrophils
T1 construct: mature; radio-iodinated when used as tracer; also called human wild type IL-8; wt IL-8
T1 sequence (looked up): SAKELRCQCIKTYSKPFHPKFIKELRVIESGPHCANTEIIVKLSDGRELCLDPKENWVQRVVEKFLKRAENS

[2] = target: T1, recombinant human IL-8, (ser-IL-8)72; experiment: as above; remark: listed apart in the source
[3] = target: T1, recombinant human IL-8, (ser-IL-8)72; experiment: cell-based or functional assay
rhesus IL-8 = target: T2, rhesus IL-8 (rhesus, UniProt P67813 23-101, limits assumed); experiment: cell-based or functional assay
T2 sequence (looked up): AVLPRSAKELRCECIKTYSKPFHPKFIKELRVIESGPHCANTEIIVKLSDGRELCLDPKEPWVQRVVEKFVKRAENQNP

| Binder | IC50 [2] | fold decrease in IL-8 binding (against F(ab)-1) [1] | further results |
| --- | --- | --- | --- |
| B1 | 63 nM |  | IC50 [1]: 40 nM; fold reduction in binding affinity (against the chimeric F(ab) of Table 4) [1]: 5.5 fold |
| B2 | 106 nM | < 2 fold |  |
| B3 | 79.8 nM | < 2 fold |  |
| B4 |  |  | IC50, neutrophil chemotaxis [3]: 0.12 nM; IC50, neutrophil chemotaxis (rhesus IL-8): 10 nM |
| B5 | 38.4 nM |  |  |
